From the DeepSol protein solubility set

assay: soluble on expression in E. coli; label from the status in PepcDB or PDB records

| Sequence | soluble on expression in E. coli |
| --- | --- |
| MIEVIFLGTGGIKPTPERNVPSIAIKIGGEIILFDVGEGTLRQMEIARISPMKIKRVFITHFHGDHYLGLPALIQTMSLWKRKDPLHIYGPEGSSTFLQNLLNSGYFAPSFDILVHEISGKSRLKFKEYEVWAFEVSHGVPALGYVFKEKDKRGNFNLKKIKELGLEPGPWMKELERQKIIEINGKIVRLLEVTGPKKRGAKVVYSGDTEPCDEVIEFSRRGTLLIHEATYVNEEDRKDSYHTTIEEACEIWKKSKARKLVLFHRSPRYSFKEYKEKALSICPQAIIPRDFDRIAIEGAGDVLFKIR | soluble |
| MTSDIKAILEQVVISPDVPIAEAIAQLDRAGTGSLVVCSADKKLYGLLTDGDVRRALLKAVDMGAPCGDIANRKPVITFVPLLPIEALRLMNHHDINHLPVLDAEGRVVDFLLRRDLVAEDELAARARRRLDSVVIPCSASIAEAIAQLDRAGTGALVLCSEGDRLHGLLTDGDIRRAVLRGISLDAPCQDVASRRPVTVEPSFSAAQALHLMNQHDINHLPVVDDTGRVVDFLLRRDLIADDQLNLSAVVMAGGYGKRLLPLTEQVPKPMLPVGDRPLLERTIDQLRRSGIREVNLTTHYLPDSIVEHFGDGDSFGVKLNYLKEDHPLGTAGGLKLMKKASDPFLVMNGDILTGVPFQEMFAYHRKNGAEITVGVRKYEVQVPFGVVECDDVRITGLKEKPSLTFFINAGIYLLEPSVCDLIPEGERFDMTDLIQKLLDEGRSVVSFPIMEYWLDVGRHEDYQKAQEDVRSGKIQLEHHHHHH | not soluble |
| MSEDLMDLSPEEGIERFLRHREPSVRESTMRNAKTRLRFFNEWCEERDIENLNNLTGRDLADFVAWRRGDIAALTLQKQLSTIREALRYWADIEGVDDGLAEKVHAPELEHHHHHH | not soluble |
| MDWQNRFSVLNLSSHDPLPELMLTHLTGWGAITLVGADKKAYLQGQVTCNVVSLQEQQVTFGAHCDAKGKVWSVFRLFHHHDGYAMFQPQSAMEVELRELKKYAIFSKVTIAESSDIALGVMGSQADAWIDTVSETTGDVRRIAGGTAVRMSPQRWLLLVNAEQAEQYVNAWQGLHVEQSLWTRMDIEEAVPVVTQTAQNEHIPQALNVQAVDGISFTKGCYTGQETVARAKYRGINKRAMYIVKGNLSAPLSQDEPVVLERAVGENWRSAGALLTHYRFTDSIAIGLIVLPNDLEHDVKLRLAAQPDTRWHIQPLPYSLSDELEHHHHHH | soluble |
| MARMLTAADVEAAGGKLILAAGDRLTPLARDRARELGIVVEAAGLSSGVSTPSASPTSTSAPVVKSPLAAPAPAPVPAARPATPVAPPAATGSRPLALPPSGALYRRNALGPSAQSSRAVDGRPKAGVVGAGHVGAMTALRLAESDLFSEVALVDVVPGLAAGLALDMWHGAGLYGFSTRLSGSDDLVALAGAEYIVITAGKPRQPGMSRTDLTVVNAEIMTSVCRGIRTHAPNSTLVIVSNPLEEMTHLAAQQTGFPEERVLGMAGVLDSARFCALVGLTGKARPQEVRAVALGSHGPEMVIPLSQAFVGDRPIESMFDAETLKALVERARESGGEVVKLLQKGSAYFSPAESAVTMVRAMVRDSGEVIAACVRSRGAYGAVDTRVGLPVRLHRRGLKEIVPLTLRPAEQQALQDAAARIAARIAELPAPC | not soluble |
| MSHGHSHDGAPCGGHHGDDGAGGSRPSVNDVQALVDQLRLAGVDVSNMPNIPTAPRDMDEARSKSFQFWSTQPVPQMDETVPADVNCAIEENIALDKVRAEPFSLPAGFRWSNVDLSDEEQLNELYNLLTRNYVEDDDSMFRFDYSADFLKWALQVPGFRPEWHCGVRADSNNRLLAFIGAVPQTVRVYDKTVNMVEINFLCVHKNLRSRRVAPVLIREITRRVNVTGIFQAAFTAGIVIPKPVSVCRYYHRSLNPRKLIDVRFSHLSAKMTMARTIKLYKLPEETATRNLREMKSTDVPQVFKLLTTSLKQYSLAPVYNSEEELAHALVPKKGVVYSYVAENQNGKITDFVSFYSLPSTVMGHTTHKTIYAAYLYYYVAGSVTPKQLINDSLILANREKFDVFNALDLMHNEKIFSDLKFGKGDGNLQYYLYNWKCADMKPSQIGLVLQ | not soluble |
| MSLLAEKLQINSITPHPSVEYWSVCKVEALFETPFLELVYRATQVHRKHFNPRAIQLSTLMSIKTGGCPEDCSYCPQSARYHTGVQNQQLLDVDEIVAKAKIAKARGAGRFCMGAAWRGPKPKDIEKVTEIIKAVKSLGLETCGTFGLLQDGMAEDLKEAGLDYYNHNLDTAPEHYAEVIGTRRFDDRLSTLGKVRKAGLKVCCGGIVGMNETRKERAGLIASLANLDPQPESVPINQLVKVEGTPLADAEELDWTEFVRTIAVARITMPKSYVRLSAGRSGMTEEMQAMCFMAGANSIFYGDKLLVTDNPEEDGDQLLMAKLDLEPETAENKKLEGHHHHHH | soluble |
